Residue numbers refer to the chain shown, from its start. Each block holds one binder with its values, some of them ahead of it.
Experiments:
human GLP-1 receptor [1] = biological target: T1, human GLP-1 receptor (human, UniProt P43220 24-463); experiment: cell-based or functional assay
human GLP-1 receptor [2] = biological target: T1, human GLP-1 receptor; experiment: cell-based or functional assay; remark: listed apart in the source

T1 sequence (P43220 24-463): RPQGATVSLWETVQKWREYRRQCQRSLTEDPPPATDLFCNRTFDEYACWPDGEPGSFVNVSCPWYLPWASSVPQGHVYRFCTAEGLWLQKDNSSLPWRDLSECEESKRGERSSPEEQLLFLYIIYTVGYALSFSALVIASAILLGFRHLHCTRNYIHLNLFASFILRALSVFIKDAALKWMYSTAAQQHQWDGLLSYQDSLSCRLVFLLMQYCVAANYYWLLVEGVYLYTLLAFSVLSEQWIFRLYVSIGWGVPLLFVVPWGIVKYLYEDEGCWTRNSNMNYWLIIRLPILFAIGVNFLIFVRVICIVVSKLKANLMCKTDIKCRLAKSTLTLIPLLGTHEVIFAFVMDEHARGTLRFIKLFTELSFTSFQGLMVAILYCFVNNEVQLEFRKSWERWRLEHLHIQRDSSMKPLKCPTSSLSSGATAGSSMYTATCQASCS

pEC50 (6CRE luciferase reporter, CHO 6CRE GLP1R cells) (human GLP-1 receptor [1]): 9.45
B1: DMS7148 (other)
chain: HGEGTFTSDVSSYLEGQAAKEFIADLVEGRGPSSDIQMTQSPSSLSASVGDRVTITCRASQWIGSQLSWYQQKPGKAPKLLIMWRSSLQSGVPSRFSGSGSGTDFTLTISSLQPEDFATYYCAQGAALPRTFGQGTKVEIKR

EC50 (M) (luciferase reporter, CHO 6CRE GLP1R cells); preparation DMS7161 A (human GLP-1 receptor [2]): 3.4e-09 M | EC50 (M) (luciferase reporter, CHO 6CRE GLP1R cells); preparation DMS7161 B (human GLP-1 receptor [2]): 1.6e-09 M | pEC50 (luciferase reporter, CHO 6CRE GLP1R cells); preparation DMS7161 A (human GLP-1 receptor [2]): 8.47 | pEC50 (luciferase reporter, CHO 6CRE GLP1R cells); preparation DMS7161 B (human GLP-1 receptor [2]): 8.79
B2: DMS7161 (other)
chain: B1 chain with A126L, A127R, L128H, R130K

Reference: patent US20110229458A1 (published 2011)
